Consider four molecules from patent publication US20220249685A1 (SILVERBACK THERAPEUTICS, published 2022).

The term EC50 (read off the curve) denotes the concentration giving half of the maximal effect. Lower therefore signals higher potency in that assay.

Test [1] has as its target T1, human MSLN expressed on tumor cell lines (OVCAR3, NCI-N87) or on transfected HEK-293 cells (human, UniProt Q13421 296-598).
T1 construct: whole, on cells; also called human mesothelin
Nature of the test: flow cytometry on NCI-N87 cells, anti-huIgG1-PE, MFI (Geo Mean).

For test [2], the target named is T2, cynomolgus MSLN on transfected 293 cells (cynomolgus).
T2 construct: whole, on cells; also called cyno MSLN; cynomolgus mesothelin
Nature of the test: flow cytometry on 293 cells transiently transfected with cyno MSLN, anti-huIgG1-PE, MFI (Geo Mean).

T1 sequence (Q13421 other isoform, or with tags, fused parts or gaps limits assumed): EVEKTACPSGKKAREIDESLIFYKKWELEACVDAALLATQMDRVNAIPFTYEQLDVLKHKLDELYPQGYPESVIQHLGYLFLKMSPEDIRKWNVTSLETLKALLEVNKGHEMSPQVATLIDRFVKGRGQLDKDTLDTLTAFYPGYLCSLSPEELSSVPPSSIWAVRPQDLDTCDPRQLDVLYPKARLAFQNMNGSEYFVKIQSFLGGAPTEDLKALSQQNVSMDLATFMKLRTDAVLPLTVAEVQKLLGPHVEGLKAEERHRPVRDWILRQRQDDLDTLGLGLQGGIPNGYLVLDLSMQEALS

B1: Antibody 55 (VH1-e G27Y, G55A, R66K, V67A, A71V / VKIII-L6) (antibody, V domains shown)
VH: QVQLVQSGAEVKKPGSSVKVSCKASGYTFSGYTMNWVRQAPGQGLEWMGLITPYNAASSYNQKFRGKATITVDKSTSTAYMELSSLRSEDTAVYYCARGGYDGRGFDYWGQGTTVTVSS
VL: EIVLTQSPATLSLSPGERATLSCSASSSVSYMHWYQQKPGQAPRLLIYDTSKLASGIPARFSGSGSGTDFTLTISSLEPEDFAVYYCQQWSKHPLTFGGGTKVEIK
Take B1: the concentration for a half-maximal effect (EC50 (read off the curve)) was roughly 0.1 nM in test [1] and roughly 0.08 nM in test [2].

B2: 55-IgG1-TLR8 conjugate (antibody, V domains shown)
VH: QVQLVQSGAEVKKPGSSVKVSCKASGYTFSGYTMNWVRQAPGQGLEWMGLITPYNAASSYNQKFRGKATITVDKSTSTAYMELSSLRSEDTAVYYCARGGYDGRGFDYWGQGTTVTVSS
VL: EIVLTQSPATLSLSPGERATLSCSASSSVSYMHWYQQKPGQAPRLLIYDTSKLASGIPARFSGSGSGTDFTLTISSLEPEDFAVYYCQQWSKHPLTFGGGTKVEIK
modifications: cysteines freed by TCEP reduction may carry the drug-linker; positions not given; cysteines freed by TCEP reduction carry the TLR8 agonist drug-linker; positions not given
notes: also called 55-TLR8
Consider B2, for which the concentration giving a half-maximal response (EC50 (read off the curve)) is roughly 0.2 nM in test [1] and roughly 0.1 nM in test [2].

B3: Antibody 56 (VH1-e CDRgraft G55A / VKI-L12) (antibody, V domains shown)
VH: QVQLVQSGAEVKKPGSSVKVSCKASGGTFSGYTMNWVRQAPGQGLEWMGLITPYNAASSYNQKFRGRVTITADKSTSTAYMELSSLRSEDTAVYYCARGGYDGRGFDYWGQGTTVTVSS
VL: DIQMTQSPSTLSASVGDRVTITCSASSSVSYMHWYQQKPGKAPKLLIYDTSKLASGVPSRFSGSGSGTEFTLTISSLQPDDFATYYCQQWSKHPLTFGGGTKVEIK
B3: the “EC50 (read off the curve)” value was roughly 0.2 nM in test [1] and roughly 0.1 nM in test [2].

B4: 56-IgG1-TLR8 conjugate (antibody, V domains shown)
VH: QVQLVQSGAEVKKPGSSVKVSCKASGGTFSGYTMNWVRQAPGQGLEWMGLITPYNAASSYNQKFRGRVTITADKSTSTAYMELSSLRSEDTAVYYCARGGYDGRGFDYWGQGTTVTVSS
VL: DIQMTQSPSTLSASVGDRVTITCSASSSVSYMHWYQQKPGKAPKLLIYDTSKLASGVPSRFSGSGSGTEFTLTISSLQPDDFATYYCQQWSKHPLTFGGGTKVEIK
modifications: cysteines freed by TCEP reduction may carry the drug-linker; positions not given; cysteines freed by TCEP reduction carry the TLR8 agonist drug-linker; positions not given
notes: also called 56-TLR8
B4: the concentration for a half-maximal effect (EC50 (read off the curve)) was roughly 0.3 nM in test [1] and roughly 0.2 nM in test [2].
